One data set concerns T1, APG05459.1 (Enterococcus sp.).
T1 sequence: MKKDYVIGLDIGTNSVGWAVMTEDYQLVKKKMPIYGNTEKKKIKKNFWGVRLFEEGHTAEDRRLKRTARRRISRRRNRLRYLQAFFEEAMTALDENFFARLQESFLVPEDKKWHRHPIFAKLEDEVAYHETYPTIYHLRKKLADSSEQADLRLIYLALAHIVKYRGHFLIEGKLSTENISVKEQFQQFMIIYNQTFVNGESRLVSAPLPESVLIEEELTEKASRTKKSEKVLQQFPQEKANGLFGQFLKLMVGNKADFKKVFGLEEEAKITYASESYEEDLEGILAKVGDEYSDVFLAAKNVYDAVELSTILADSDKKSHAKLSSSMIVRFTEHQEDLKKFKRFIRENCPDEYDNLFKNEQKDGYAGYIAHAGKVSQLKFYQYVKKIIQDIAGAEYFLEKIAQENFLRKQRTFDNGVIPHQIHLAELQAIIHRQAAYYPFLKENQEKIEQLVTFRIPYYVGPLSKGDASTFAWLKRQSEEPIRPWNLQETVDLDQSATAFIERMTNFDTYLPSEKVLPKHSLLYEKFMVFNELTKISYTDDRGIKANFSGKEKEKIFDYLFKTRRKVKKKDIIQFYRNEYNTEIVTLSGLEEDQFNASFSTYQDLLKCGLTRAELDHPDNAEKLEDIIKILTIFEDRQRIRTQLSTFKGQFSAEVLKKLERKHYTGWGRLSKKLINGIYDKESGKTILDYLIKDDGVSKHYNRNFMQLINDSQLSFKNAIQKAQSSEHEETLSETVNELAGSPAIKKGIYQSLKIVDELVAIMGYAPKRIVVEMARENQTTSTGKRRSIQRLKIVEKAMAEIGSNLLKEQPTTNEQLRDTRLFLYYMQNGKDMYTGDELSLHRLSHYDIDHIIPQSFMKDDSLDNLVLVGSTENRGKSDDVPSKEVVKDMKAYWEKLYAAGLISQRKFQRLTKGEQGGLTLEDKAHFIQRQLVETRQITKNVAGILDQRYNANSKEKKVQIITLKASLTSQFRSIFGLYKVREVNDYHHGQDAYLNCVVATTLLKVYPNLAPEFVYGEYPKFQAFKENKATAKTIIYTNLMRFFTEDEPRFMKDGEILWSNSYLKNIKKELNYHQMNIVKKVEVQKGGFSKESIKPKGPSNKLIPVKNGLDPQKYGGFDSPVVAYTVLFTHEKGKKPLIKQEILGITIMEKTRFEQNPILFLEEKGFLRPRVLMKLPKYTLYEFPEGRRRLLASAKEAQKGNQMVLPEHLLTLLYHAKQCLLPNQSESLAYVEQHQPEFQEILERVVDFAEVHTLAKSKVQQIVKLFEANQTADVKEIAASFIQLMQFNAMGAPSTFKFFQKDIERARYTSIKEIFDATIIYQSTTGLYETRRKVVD
In words: cleavage_in_vitro.
Settings: not given
For “GAGCGGACAGCAGCUUCCUAUAUCUCGUACNNNNNNNNNNNNNNNNNNNNNNNNNGUUUUAGAGUCAUGUUAAAGAACAUAGCAAGUUAAAAUAAGGUUUUAACCGUAAUCAACUGUAAAGUGGCGCUGUUUCGGCGCUUUUUUUGUUU / GAGCGGACAGCAGCTTCCTATATCTCGTTC / GAACGAGATATAGGAAGCTGCTGTCCGCTC [Sequence 1 sgRNA for APG05459.1 ; target mismatch 2]”, the activity is 74 % cleaved.

In turn, “GAGCGGACAGCAGCUUCCUAUAUCUCGUACNNNNNNNNNNNNNNNNNNNNNNNNNGUUUUAGAGUCAUGUUAAAGAACAUAGCAAGUUAAAAUAAGGUUUUAACCGUAAUCAACUGUAAAGUGGCGCUGUUUCGGCGCUUUUUUUGUUU / CAGCGGACAGCAGCTTCCTATATCTCGTAC / GTACGAGATATAGGAAGCTGCTGTCCGCTG [Sequence 1 sgRNA for APG05459.1 ; target mismatch 30]” displayed an activity of 57 % cleaved. For “GAGCGGACAGCAGCUUCCUAUAUCUCGUACNNNNNNNNNNNNNNNNNNNNNNNNNGUUUUAGAGUCAUGUUAAAGAACAUAGCAAGUUAAAAUAAGGUUUUAACCGUAAUCAACUGUAAAGUGGCGCUGUUUCGGCGCUUUUUUUGUUU / GAGCGGACAGCAGCTTCCTATATCTGGTAC / GTACCAGATATAGGAAGCTGCTGTCCGCTC [Sequence 1 sgRNA for APG05459.1 ; target mismatch 5]”, the activity came out at 0 % cleaved. Same read-out and setting: as for “GAGCGGACAGCAGCUUCCUAUAUCUCGUACNNNNNNNNNNNNNNNNNNNNNNNNNGUUUUAGAGUCAUGUUAAAGAACAUAGCAAGUUAAAAUAAGGUUUUAACCGUAAUCAACUGUAAAGUGGCGCUGUUUCGGCGCUUUUUUUGUUU / GAGCGGACAGCACCTTCCTATATCTCGTAC / GTACGAGATATAGGAAGGTGCTGTCCGCTC [Sequence 1 sgRNA for APG05459.1 ; target mismatch 18]”, the figure is 0 % cleaved; as for “GAGCGGACAGCAGCUUCCUAUAUCUCGUACNNNNNNNNNNNNNNNNNNNNNNNNNGUUUUAGAGUCAUGUUAAAGAACAUAGCAAGUUAAAAUAAGGUUUUAACCGUAAUCAACUGUAAAGUGGCGCUGUUUCGGCGCUUUUUUUGUUU / GAGCGGACAGCAGCTTCCTATATCTCGAAC / GTTCGAGATATAGGAAGCTGCTGTCCGCTC [Sequence 1 sgRNA for APG05459.1 ; target mismatch 3]”, 3 % cleaved; as for “GAGCGGACAGCAGCUUCCUAUAUCUCGUACNNNNNNNNNNNNNNNNNNNNNNNNNGUUUUAGAGUCAUGUUAAAGAACAUAGCAAGUUAAAAUAAGGUUUUAACCGUAAUCAACUGUAAAGUGGCGCUGUUUCGGCGCUUUUUUUGUUU / GAGCGGACAGCAGCTTCCTATATCTCGTAG / CTACGAGATATAGGAAGCTGCTGTCCGCTC [Sequence 1 sgRNA for APG05459.1 ; target mismatch 1]”, 0 % cleaved.

As to “GAGCGGACAGCAGCUUCCUAUAUCUCGUACNNNNNNNNNNNNNNNNNNNNNNNNNGUUUUAGAGUCAUGUUAAAGAACAUAGCAAGUUAAAAUAAGGUUUUAACCGUAAUCAACUGUAAAGUGGCGCUGUUUCGGCGCUUUUUUUGUUU / GAGCGGACAGCAGCTTCCTATAACTCGTAC / GTACGAGTTATAGGAAGCTGCTGTCCGCTC [Sequence 1 sgRNA for APG05459.1 ; target mismatch 8]”, the activity is 51 % cleaved.

The same data set, now with this note: PAM SEQ 41; blunt cut 3 from PAM (Table 3).
“GAGCGGACAGCAGCUUCCUAUAUCUCGUACNNNNNNNNNNNNNNNNNNNNNNNNNGUUUUAGAGUCAUGUUAAAGAACAUAGCAAGUUAAAAUAAGGUUUUAACCGUAAUCAACUGUAAAGUGGCGCUGUUUCGGCGCUUUUUUUGUUU / GAGCGGACAGCAGCTTCCTATATCTCGTAC / GTACGAGATATAGGAAGCTGCTGTCCGCTC [Sequence 1 sgRNA for APG05459.1 ; Sequence 1 target]” came in with an activity of 67 % cleaved.

Staying with this data set, now noted: incompatible PAM.
Turning to “GAGCGGACAGCAGCUUCCUAUAUCUCGUACNNNNNNNNNNNNNNNNNNNNNNNNNGUUUUAGAGUCAUGUUAAAGAACAUAGCAAGUUAAAAUAAGGUUUUAACCGUAAUCAACUGUAAAGUGGCGCUGUUUCGGCGCUUUUUUUGUUU / GAGCGGACAGCAGCTTCCTATATCTCGTAC / GTACGAGATATAGGAAGCTGCTGTCCGCTC”, the activity turned out to be 0 % cleaved.
